Measured values from US20230110188A1 (ARGENX IIP, published 2023).

Experiments:
[1] = molecular target: T1, Mouse MuSK as it stands on mouse muscle (neuromuscular junctions, C2C12 myotubes) (mouse, UniProt Q61006 22-868); assay: cell-based or functional assay
T1 sequence (looked up): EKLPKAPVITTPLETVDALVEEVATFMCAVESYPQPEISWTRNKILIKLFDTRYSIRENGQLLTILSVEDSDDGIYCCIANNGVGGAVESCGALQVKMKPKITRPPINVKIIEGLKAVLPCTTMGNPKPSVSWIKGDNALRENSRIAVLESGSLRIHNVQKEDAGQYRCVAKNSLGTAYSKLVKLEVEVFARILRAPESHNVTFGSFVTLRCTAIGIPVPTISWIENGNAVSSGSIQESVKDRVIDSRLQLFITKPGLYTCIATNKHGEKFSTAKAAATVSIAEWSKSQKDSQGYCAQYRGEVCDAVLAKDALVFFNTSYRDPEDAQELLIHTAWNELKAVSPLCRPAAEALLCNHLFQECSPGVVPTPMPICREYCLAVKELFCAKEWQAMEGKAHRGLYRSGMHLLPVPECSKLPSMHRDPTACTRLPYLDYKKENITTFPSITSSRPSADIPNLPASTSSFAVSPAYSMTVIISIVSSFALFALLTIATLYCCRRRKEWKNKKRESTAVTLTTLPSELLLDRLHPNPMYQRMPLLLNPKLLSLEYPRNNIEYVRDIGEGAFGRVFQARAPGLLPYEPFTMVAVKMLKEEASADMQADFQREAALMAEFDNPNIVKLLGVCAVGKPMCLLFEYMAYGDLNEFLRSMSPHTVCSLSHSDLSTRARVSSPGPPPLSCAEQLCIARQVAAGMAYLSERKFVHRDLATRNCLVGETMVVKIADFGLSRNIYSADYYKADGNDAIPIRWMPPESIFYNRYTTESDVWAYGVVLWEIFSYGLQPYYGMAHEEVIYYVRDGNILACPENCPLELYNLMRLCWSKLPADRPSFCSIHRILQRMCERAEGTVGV

[2] = molecular target: T1, Mouse MuSK as it stands on mouse muscle …; assay: cell-based or functional assay; remark: listed apart in the source
[3] = molecular target: T1, Mouse MuSK as it stands on mouse muscle …; assay: cell-based or functional assay; remark: listed apart in the source
[4] = molecular target: T1, Mouse MuSK as it stands on mouse muscle …; assay: cell-based or functional assay; remark: listed apart in the source
[5] = molecular target: T1, Mouse MuSK as it stands on mouse muscle …; assay: cell-based or functional assay; remark: listed apart in the source
[6] = molecular target: T2, Human MuSK (R&D Systems, cat. 10189-MK, histidine tag) (human, UniProt O15146 24-495); assay: SPR (Biacore), antibody captured on anti-hFc chip; 5 nM; dissociation pH 5.5
T2 construct: Bought protein; also called human monomeric MuSK-6xhis; not shown: histidine tag (6xhis)
T2 sequence: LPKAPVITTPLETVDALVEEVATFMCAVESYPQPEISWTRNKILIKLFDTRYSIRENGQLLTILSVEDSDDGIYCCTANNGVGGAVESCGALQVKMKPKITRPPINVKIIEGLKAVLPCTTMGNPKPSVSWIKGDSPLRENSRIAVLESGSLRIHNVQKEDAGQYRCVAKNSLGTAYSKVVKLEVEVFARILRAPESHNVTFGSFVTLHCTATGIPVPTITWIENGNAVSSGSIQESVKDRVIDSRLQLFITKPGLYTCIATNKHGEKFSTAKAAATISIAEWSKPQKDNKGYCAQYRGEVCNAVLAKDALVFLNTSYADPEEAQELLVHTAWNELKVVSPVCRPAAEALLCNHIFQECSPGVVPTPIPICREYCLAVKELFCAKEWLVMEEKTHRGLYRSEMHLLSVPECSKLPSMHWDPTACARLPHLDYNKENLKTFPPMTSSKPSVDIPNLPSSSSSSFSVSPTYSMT
From the text: (§1) In order to study pH dependent binding of our antibodies to MuSK, the Biacore was used with the same setup as described in the paragraph entitled “Binding affinity for mouse, human and rhesus monkey recombinant MuSK in Biacore”. 6. […] For the other antibodies there is no real difference observed between pH 7.4 and 5.5.

[7] = molecular target: T2, Human MuSK (R&D Systems, cat. 10189-MK, …); assay: SPR (Biacore), antibody captured on anti-hFc chip; 10 nM; dissociation pH 7.4
From the text: as §1

[8] = molecular target: T2, Human MuSK (R&D Systems, cat. 10189-MK, …); assay: SPR (Biacore), antibody captured on anti-hFc chip; 10 nM; dissociation pH 5.5
From the text: as §1

[9] = molecular target: T2, Human MuSK (R&D Systems, cat. 10189-MK, …); assay: SPR (Biacore), antibody captured on anti-hFc chip; 0.625 nM; dissociation pH 7.4
From the text: as §1

[10] = molecular target: T2, Human MuSK (R&D Systems, cat. 10189-MK, …); assay: SPR (Biacore), antibody captured on anti-hFc chip; 0.625 nM; dissociation pH 5.5
From the text: as §1

[11] = molecular target: T2, Human MuSK (R&D Systems, cat. 10189-MK, …); assay: SPR (Biacore), antibody captured on anti-hFc chip; 0.3125 nM; dissociation pH 5.5
From the text: as §1

[12] = molecular target: T2, Human MuSK (R&D Systems, cat. 10189-MK, …); assay: SPR (Biacore), antibody captured on anti-hFc chip; average of 0.3125-10 nM; dissociation pH 7.4
From the text: as §1

[13] = molecular target: T2, Human MuSK (R&D Systems, cat. 10189-MK, …); assay: SPR (Biacore), antibody captured on anti-hFc chip; average of 0.3125-10 nM; dissociation pH 5.5
From the text: as §1

Binder | MuSK phosphorylation, % versus agrin (C2C12 myotubes) [1] | AChR clusters larger or equal to 15 µm (large clusters) compared to agrin; Exp 1, batch Argenx [2] | AChR clusters larger or equal to 15 µm (large clusters) compared to agrin; Exp 2, batch Argenx [2] | AChR clusters larger or equal to 15 µm (large clusters) compared to agrin; Exp 3, batch UPX [2] | AChR clusters larger or equal to 3 µm compared to agrin; Exp 1, batch Argenx [3] | AChR clusters larger or equal to 3 µm compared to agrin; Exp 2, batch Argenx [3] | AChR clusters larger or equal to 3 µm compared to agrin; Exp 3, batch UPX [3] | AChR clusters larger or equal to 15 µm (large clusters) compared to agrin; antibody 0.11 µg/ml [4] | AChR clusters larger or equal to 15 µm (large clusters) compared to agrin; antibody 1.1 µg/ml [4] | AChR clusters larger or equal to 15 µm (large clusters) compared to agrin; antibody 11 µg/ml [4] | AChR clusters larger or equal to 15 µm (large clusters) compared to agrin; antibody 110 µg/ml [4] | AChR clusters larger or equal to 3 µm compared to agrin; antibody 0.11 µg/mL [5] | AChR clusters larger or equal to 3 µm compared to agrin; antibody 1.1 µg/mL [5] | AChR clusters larger or equal to 3 µm compared to agrin; antibody 11 µg/mL [5] | AChR clusters larger or equal to 3 µm compared to agrin; antibody 110 µg/mL [5] | koff [6] | koff [7] | koff [8] | koff [9] | koff [10] | also measured
3D10a (antibody, human IgG1, kappa, L234A L235A, V domains shown) VH: EVQLVESGGGLVKPGGSLRLSCAASGFTFSASTMAWVRQAPGKGLEWVSSVSGDSHHIYYADSLKGRFTISRDNAKNSLYLQMNSLRAEDTAVYYCARERLLRLGVGFDSWGQGTLVTVSS VL: DIQMTQSPSSLSASVGDRVTITCRASQRISGFVNWYQQKPGKAPKLLIYAASTLQSGVPSRFSGSGSGTDFTLTISSLQPEDFATYYCQQSYSPLYTFGQGTKLEIKR | 83 % versus agrin | 52 % of agrin | 73 % of agrin | 61 % of agrin | 64 % of agrin | 99 % of agrin | 71 % of agrin | 62 % of agrin | 64 % of agrin | 61 % of agrin | 58 % of agrin | 80 % of agrin | 79 % of agrin | 76 % of agrin | 73 % of agrin | 0.0001 s⁻¹ | 0.00014 s⁻¹ | 0.00011 s⁻¹ | 0.00013 s⁻¹ | 0.00012 s⁻¹ | koff [11]: 6e-05 s⁻¹; koff [12]: 0.00016 s⁻¹; koff [13]: 9e-05 s⁻¹
4D3 (antibody, human IgG1, kappa, L234A L235A, V domains shown) VH: EVQLVESGGGLVKPGGSLRLSCAASGFTFSSYTMTWVRQAPGKGLEWVSSISSGGHYIYYTDSLKGRFTISRDNAKNSLYLQMNSLRAEDTAVYYCARERLLRLGVGFDFWGQGTLVTVSS VL: DIQMTQSPSSLSASVGDRVTITCRASQSISGYLNWYQQKPGKAPKLLIYAASTLQSGVPSRFSGSGSGTDFTLTISSLQPEDFATYYCQQSYSALYTFGQGTKLEIKR | 112 % versus agrin | 84 % of agrin | 58 % of agrin | 59 % of agrin | 102 % of agrin | 73 % of agrin | 72 % of agrin | 44 % of agrin | 58 % of agrin | 61 % of agrin | 58 % of agrin | 63 % of agrin | 80 % of agrin | 80 % of agrin | 75 % of agrin | 0.00018 s⁻¹ | 0.00013 s⁻¹ | 0.00019 s⁻¹ | 0.00016 s⁻¹ | 0.00013 s⁻¹ | koff [11]: 0.00018 s⁻¹; koff [12]: 0.00014 s⁻¹; koff [13]: 0.00016 s⁻¹
3F6c (antibody, human IgG1, kappa, L234A L235A, V domains shown) VH: EVQLVESGGGLVKPGGSLRLSCAASGFTFSSYTMDWVRQAPGKGLEWVSSIGSNGDYIYYADSVRGRFTISRDNAKNSLYLQMNSLRAEDTAVYYCARGQLAVAGTHFDYWGQGTLVTVSS VL: DIQMTQSPSSLSASVGDRVTITCRASQKVNKYVNWYQQKPGKAPKLLIYAASTLQSGVPSRFSGSGSGTDFTLTISSLQPEDFATYYCQQSYSPLSTFGQGTKLEIKR | 100 % versus agrin | 56 % of agrin | 70 % of agrin | 57 % of agrin | 71 % of agrin | 105 % of agrin | 69 % of agrin | 60 % of agrin | 46 % of agrin | 51 % of agrin | 50 % of agrin | 74 % of agrin | 57 % of agrin | 62 % of agrin | 61 % of agrin | 0.0002 s⁻¹ | 6e-05 s⁻¹ | 0.00023 s⁻¹ | 4e-05 s⁻¹ | 0.00014 s⁻¹ | koff [11]: 0.00023 s⁻¹; koff [12]: 8e-05 s⁻¹; koff [13]: 0.0002 s⁻¹
3D9b (antibody, human IgG1, kappa, L234A L235A, V domains shown) VH: EVQLVESGGGLVKPGGSLRLSCAASGFTFSTYTMHWVRQAPGKGLEWVSSISSRSAYKYYADSVKGRFTISRDNAKNSLYLQMNSLRAEDTAVYYCARDFFQLGPPRFDSWGQGTLVTVSS VL: DIQMTQSPSSLSASVGDRVTITCRASQRISSFLNWYQQKPGKAPKLLIYGASNLQSGVPSRFSGSGSGTDFTLTISSLQPEDFATYYCQQSYSPSYTFGQGTKLEIKR | 205 % versus agrin | 80 % of agrin | 74 % of agrin | 70 % of agrin | 89 % of agrin | 95 % of agrin | 91 % of agrin | 49 % of agrin | 84 % of agrin | 79 % of agrin | 66 % of agrin | 65 % of agrin | 99 % of agrin | 93 % of agrin | 84 % of agrin | 4e-05 s⁻¹ | 8e-05 s⁻¹ | 4e-05 s⁻¹ | 0.00014 s⁻¹ | 4e-05 s⁻¹ | koff [11]: 3e-05 s⁻¹; koff [12]: 0.00012 s⁻¹; koff [13]: 4e-05 s⁻¹
